B1: TPR t1 (parent)
chain: GACCAAUCUGCCCUCAGAGCUCGAGAACAUCUUCGGAUGCAGAGGAGGCAGGCUUCGGUGGCGCGAUAGCGCCAACGUCCUCAACCUCCAAUGCAUCCCACCACAUGAUGAUGCCUGAAGAGCCUUGGUUUUUUG

Variants of: B1
Assay: polymerase ribozyme fitness, log enrichment relative to wild type (log ratio); higher = more active; in vitro selection for triplet polymerase activity
How it was run: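 Fitness compares each genotype's enrichment to that of the wild type on a logarithmic scale, averaging replicates with inverse-variance weights. The logarithm is base 2. Enrichment came from Illumina sequencing of input and output libraries after one triplicate round of in vitro selection, which included frozen incubation at −7 °C, of PCR-built, transcribed mutant libraries of each subunit of a heterodimeric triplet polymerase ribozyme. Only genotypes with ≥10 input reads and ≥1 read per output were kept.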

First: GACCAAUCUGCCCUCAGAGCUCGAGAACAUCUUCGGAUGCAGAGGAGGCAGGCUUCGGUGGCGUGAUAGCGCCAACGUCCUCAACCUCUAAUGCAUCCCACCACAUGAUGAUGCCUGAAGAGUCUUGGUUUUUUG [C64U C89U C123U]
Second: GACCAAUCUGCCCUCAGAGCUCGAGAACAUCUUCGGAUGCAGAGGAGGCAGGCUUCGGUGGCGUGAUAGCGGCAACGACCUCAACCUCCAAUGCAUCCCACCACAUGAUGAUGCCUGAAGAGCCUUUGCUUUUUG [C64U C72G U78A G127U U129C]
The “polymerase ribozyme fitness (log ratio)” value of the first is higher: 0.715 for the first, -1.9 for the second.

Compared with GACCAAUCUGCCCUCAGAGCUCGAGAACAUCUUCGGAUGCAGAGGAGGCAGGCUUCGGUGGCGUGAUAGCGCCAAGGUCCUCAAACUCCAAUGCAUCCCACCACAUGAUGAUGCCUGAAGAGCCUUGGUUUUUUG [C64U C76G C85A], GACCAAUCUGCCCUCAGAGCUCGAGAACAUCUUCGGAUGCAGAGGAGGCAGGCUUCGGUGGCGUGAUAGCGCCAACGUCCUCAACCUCCAAUGCAUCCCUCCACAUGAUGAUGCCUGAAGAGCCUUGGUAUUUUG [C64U A100U U130A] is higher in “polymerase ribozyme fitness (log ratio)” value: -3.38 for the first, -1.02 for the second.

Going from GACCAAUCUGCCCUCAGAGCUCGAGAACAUCUUCGGAUGCAGAGGAGGCAGGCUUCGGUGGCGUGAUAGCGCCAACGUCCUCAACCUCCAAUGUAUCCCACGACAUGAUGAUGCCUGAAGAGCCUUGGUUUUUUG [C64U C94U C102G] to GACCAAUCUGCCCUCAGAGCUCGAGAACAUCUUCGGAUGCAGAGGAGGCAGGCUUCGGUGGCGUGAUAGCGCCAACGUCCUCAACCUCCAAUGCAUCCCACCACAUGAUGAUGCCUGGAGAGCCUUGGUUUUUUG [C64U A118G], the “polymerase ribozyme fitness (log ratio)” value rises from -7.24 to -1.18.

Compared with GACCAAUCUGCCCUCAGAGCUCGAGAACAUCUUCGGAUGCAGAGGAGGCAGGCUUCGGUGGCGUGAUAGCGCCAACGUACUCAACCUCCAAUGCAUCCCACCACAUGAUAAUGCCUGAAGAGCCUUGGUUUUUUG [C64U C79A G110A], GACCAAUCUGCCCUCAGAGCUCGAGAACAUCUUCGGAUGCAGAGGAGGCAGGCUUCGGUGGCGUGAUAGCGCCAAUGUCCUCAACCUCUAAUGCAACCCACCACAUGAUGAUGCCUGAAGAGCCUUGGUUUUUUG [C64U C76U C89U U96A] is lower in “polymerase ribozyme fitness (log ratio)” value: -3.21 for the first, -3.47 for the second.

Compared with GACCAAUCUGCCCUCAGAGCUCGAGAACAUCUUCGGAUGCAGAGGAGGCAGGCUUCGGUGGCGUGAUAGCGCCAACGUCCUCAACCUCCAAUGCAUCCCACCACAUGAUGAUGCCUGAAGAGUCUUGGUUUUUUG [C64U C123U], GACCAAUCUGCCCUCAGAGCUCGAGAACAUCUUCGGAUGCAGAGGAGGCAGGCUUCGGUGGCGUGAUAGCGCCAACGUCCUCAACCUCCAAUGCAUCCCACCACAUGAUGAUGCCUGAAGAGGCUUGGUUUUUUG [C64U C123G] is higher in “polymerase ribozyme fitness (log ratio)” value: 1.23 for the first, 1.86 for the second.

Compared with GACCAAUCUGCCCUCAGAGCUCGAGAACAUCUUCGGAUGCAGAGGAGGCAGGCUUCGGUGGCGUGAUAGCGCCAACGUCCUCAACCUCCAAUGCAUCCCACCCCAUGAUGAUGCCUUAAGAGCCUUGGUUUUUUG [C64U A103C G117U], GACCAAUCUGCCCUCAGAGCUCGAGAACAUCUUCGGAUGCAGAGGAGGCAGGCUUCGGUGGCGUGAUAGCGCCAACGUCCUCAACCUCCAAUGCAUCCCACCACAUGAUGCUGCAUGAAGAGCCUUGGUUUUUUG [C64U A111C C115A] is higher in “polymerase ribozyme fitness (log ratio)” value: -6.58 for the first, -4.52 for the second.

First: GACCAAUCUGCCCUCAGAGCUCGAGAACAUCUUCGGAUGCAGAGGAGGCAGGCUUCGGUGGCGUGAUAGCGCCAACGUCCUCAACAUCCAAUGCAUCCCACCACAUGAUGAUGCCUGAAGAGCCUUGGUUUUUUU [C64U C86A G135U]
Second: GACCAAUCUGCCCUCAGAGCUCGAGAACAUCUUCGGAUGCAGAGGAGGCAGGCUUCGGUGGCGUGAUAGCGCCAACGUCCUCAACCUCCAAUGCAUCCCACCACAUGAUGAUGGAUGAAGAGGAUUGGUUUUUUG [C64U C114G C115A C123G C124A]
The “polymerase ribozyme fitness (log ratio)” value of the first is higher: -2.35 for the first, -4.37 for the second.

Compared with GACCAAUCUGCCCUCAGAGCUCGAGAACAUCUUCGGAUGCAGAGGAGGCAGGCUUCGGUGGCGUGAUAGCGCCAACGUCCUCAACAUCCAAUGCAUCCCACCACAUGAUGAUGCCUGAAGAACCUUGGUUUAUUG [C64U C86A G122A U132A], GACCAAUCUGCCCUCAGAGCUCGAGAACAUCUUCGGAUGCAGAGGAGGCAGGCUUCGGUGGCGUGAUAGCGCCAACGUCCUCAACCUCCAAUGCAUCCCACCACAUGAUGGUGCCUGAAGAGCCUUGGUUUUUUG [C64U A111G] is higher in “polymerase ribozyme fitness (log ratio)” value: -2.78 for the first, 1.06 for the second.

First: GACCAAUCUGCCCUCAGAGCUCGAGAACAUCUUCGGAUGCAGAGGAGGCAGGCUUCGGUGGCGUGAUAGCGCCAACGUCUUCAACCUUCAAUGCAUCCCACCACAUGAUGGUGACUGAAGAGCCUUGGUUUUUUG [C64U C80U C88U A111G C114A]
Second: GACCAAUCUGCCCUCAGAGCUCGAGAACAUCUUCGGAUGCAGAGGAGGCAGGCUUCGGUGGCGUGAUAGCGCCAACGUCCUCAACCUCCAAUGCAUCCCACCACAUGAUGAUGCCUGAAGGGCCUUGGUUUUUUG [C64U A121G]
The “polymerase ribozyme fitness (log ratio)” value of the first is lower: -5.18 for the first, 1.93 for the second.

GACCAAUCUGCCCUCAGAGCUCGAGAACAUCUUCGGAUGCAGAGGAGGCAGGCUUCGGUGGCGUGAUAGCGCCAACGUUCUCAACCUCCAAUGCAUCCCACCACAUGAUGAUGCCUGAAGAGCCUUGGUUUUUUG [C64U C79U] and GACCAAUCUGCCCUCAGAGCUCGAGAACAUCUUCGGAUGCAGAGGAGGCAGGCUUCGGUGGCGUGAUAGCGCCAACGUCCUCAACCUCCAAUGCAUCCCUCCACAUGAUGAUGCCUGAAGAGCCUUGGUUUUUUG [C64U A100U] are within 0.2 log units of each other in “polymerase ribozyme fitness (log ratio)” value: -0.541 for the first, -0.493 for the second.

With GACCAAUCUGCCCUCAGAGCUCGAGAACAUCUUCGGAUGCAGAGGAGGCAGGCUUCGGUGGCGUGAUAGCGCCAACGUCCUCAACCUCCAAUGCAUCCCACCACAUGAUGAUGCAUGAAGAGCCUUGGUUUUUUG [C64U C115A] the “polymerase ribozyme fitness (log ratio)” value was -0.337.

Reference: the RNAGym collection of RNA variant scans (doi:10.1073/pnas.2313332121)
